Test results taken from publication PMC4633670, “Structural Characterization of a Newly Identified Component of α-Carboxysomes: The AAA+ Domain Protein CsoCbbQ” (Scientific Reports, 2015).

T1: N-terminal histidine-tagged CsoCbbO (Hneap_0910) (Halothiobacillus neapolitanus, UniProt D0KZ80 1-788)
T1 construct: CsoCbbO, cso-associated CbbO of Halothiobacillus neapolitanus, locus tag Hneap_0910; 788 amino acids, VWA domain in its C-terminus; amplified from genomic DNA with primers from the ATG to the stop codon; Cloned into the BamHI and HindIII sites of pETDuet-1; It was insoluble when expressed alone in E. coli; also called HT-CbbO; hisCsoCbbO; not shown: His6, N-terminal, kept
T1 sequence (looked up): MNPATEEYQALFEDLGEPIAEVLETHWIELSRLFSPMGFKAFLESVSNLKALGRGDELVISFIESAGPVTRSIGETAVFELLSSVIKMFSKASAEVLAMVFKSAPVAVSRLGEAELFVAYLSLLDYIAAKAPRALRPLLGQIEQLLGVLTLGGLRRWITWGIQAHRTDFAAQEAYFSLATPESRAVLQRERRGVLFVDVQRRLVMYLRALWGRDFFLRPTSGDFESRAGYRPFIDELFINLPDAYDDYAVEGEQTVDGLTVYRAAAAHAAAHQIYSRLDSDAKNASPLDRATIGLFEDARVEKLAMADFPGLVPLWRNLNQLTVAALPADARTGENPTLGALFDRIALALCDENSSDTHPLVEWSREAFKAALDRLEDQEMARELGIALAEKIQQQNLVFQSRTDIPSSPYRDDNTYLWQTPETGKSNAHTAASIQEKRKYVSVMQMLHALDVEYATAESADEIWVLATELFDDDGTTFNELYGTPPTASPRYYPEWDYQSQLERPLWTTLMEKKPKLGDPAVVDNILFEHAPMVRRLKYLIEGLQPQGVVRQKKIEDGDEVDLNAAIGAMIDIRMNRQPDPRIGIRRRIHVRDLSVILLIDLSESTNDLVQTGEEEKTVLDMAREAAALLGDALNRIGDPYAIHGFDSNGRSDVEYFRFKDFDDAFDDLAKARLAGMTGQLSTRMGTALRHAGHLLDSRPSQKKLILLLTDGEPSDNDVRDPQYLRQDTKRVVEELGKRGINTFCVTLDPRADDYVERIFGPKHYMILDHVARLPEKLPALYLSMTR

B1: non-His6-tagged CsoCbbQ (NT-CbbQ) (enzyme, Halothiobacillus neapolitanus, UniProt D0KZ75 1-267, looked up)
chain: MTQNADQYRVRKEPYYRAVQDEIELYRAGYEARIPMMLKGPTGCGKSRFVEHMAWKLNRPLITIACNEDMTASDLVGRYLLDKDGTRWQDGPLTVAARIGAICYLDEIVEARQDTIVVIHPLTDHRRVLPLEKKGELVEAHPDFQIVISYNPGYQSLMKDLKQSTKQRFGALDFDYPKPDIEAEIVSHEAGVDKDTAEKLVQIAQKARNLKGHGLDEGLSTRLLVYAGKLIAKGVDARAACTMTLVNPITDDVDMRDALDTVVKTFF
notes: CsoCbbQ of Halothiobacillus neapolitanus, locus tag Hneap_0905

Legend:
[1] = target: Hexa-histidine-tagged H. nea CsoCbbQ (Hneap_0905) (Halothiobacillus neapolitanus); assay: SEC; size exclusion data of recombinant CsoCbbQ (Supplementary Fig. 2); conditions not shown
[2] = target: Hexa-histidine-tagged H. nea CsoCbbQ (Hneap_0905) (Halothiobacillus neapolitanus); assay: crystal structure; His6-tagged CsoCbbQ crystallised with ATP in the mother liquor, ADP bound; 22 C, 0.1 M HEPES pH 7.5, 6% PEG-8000, 8% ethylene glycol; two molecules per asymmetric unit, hexamer by crystal symmetry
[3] = target: T1, N-terminal histidine-tagged CsoCbbO …; assay: SEC; purified CsoCbbO/Q complex on Superdex 200 10/300 GL; 10 mM Tris-HCl pH 8.0, 100 mM NaCl, 0.25 ml/min; mass estimated against protein standards; settings: both partners purified
[4] = target: the molecule itself; assay: as above

Row | Molecule | stoichiometry N [1] | stoichiometry N [2] | stoichiometry N [3] | stoichiometry N [4]
1 | Hexa-histidine-tagged H. nea CsoCbbQ (Hneap_0905) (enzyme) | 6 | 6 | – | –
2 | B1 | – | – | ~6 | ~6
